Experimental data taken from article PMC8026774 (Cellular and molecular neurobiology, 2020).
Where no end group is shown, it is not given here.

Legend:
MOR-1 (untagged) = MOR-1 (untagged) (mouse, UniProt P42866 1-398); test: radioligand binding
MOR-1-PK [1] = target: T1, MOR-1-PK (mouse, UniProt P42866 1-398); test: radioligand binding
MOR-TR-PK = MOR-TR-PK (mouse); test: cell-based or functional assay
MOR-1-PK [2] = target: T1, MOR-1-PK; test: cell-based or functional assay
MOR-1A-PK = MOR-1A-PK (mouse); test: cell-based or functional assay
Sequence of MOR-1A-PK (mouse) (P42866 whole entry): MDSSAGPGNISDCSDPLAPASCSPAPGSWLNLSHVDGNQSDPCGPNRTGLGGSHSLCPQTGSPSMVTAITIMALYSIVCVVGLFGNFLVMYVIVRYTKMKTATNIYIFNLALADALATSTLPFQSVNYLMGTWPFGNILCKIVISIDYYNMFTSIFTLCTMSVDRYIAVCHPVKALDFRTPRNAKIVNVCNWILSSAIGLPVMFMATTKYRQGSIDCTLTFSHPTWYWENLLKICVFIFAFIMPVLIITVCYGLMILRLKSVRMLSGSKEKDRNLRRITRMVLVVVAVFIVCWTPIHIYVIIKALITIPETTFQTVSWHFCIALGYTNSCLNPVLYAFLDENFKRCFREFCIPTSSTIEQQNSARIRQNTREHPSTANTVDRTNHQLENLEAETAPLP

MOR-1B1-PK = MOR-1B1-PK (mouse); test: cell-based or functional assay
Sequence of MOR-1B1-PK (mouse) (P42866 whole entry): as above

MOR-1E-PK = MOR-1E-PK (mouse); test: cell-based or functional assay
Sequence of MOR-1E-PK (mouse) (P42866 whole entry): as above

T1 sequence (P42866 whole entry): as above
Sequence of MOR-1 (untagged) (P42866 whole entry): as above
Sequence of MOR-TR-PK (mouse) (P42866 whole entry): as above

B1: β-endorphin (peptide)
peptide: YGGFMTSEKSQTPLVTLFKNAIIKNAYKKGE
modifications: not fully specified
MOR-1 (untagged)
  Ki: 6.22 nM
MOR-1-PK [1]
  Ki: 10.4 nM
MOR-TR-PK
  [35S]GTPγS binding (G-protein activation), EC50: 691 nM
MOR-1-PK [2]
  [35S]GTPγS binding (G-protein activation), EC50: 118 nM
MOR-1A-PK
  [35S]GTPγS binding (G-protein activation), EC50: 112 nM
MOR-1B1-PK
  [35S]GTPγS binding (G-protein activation), EC50: 141 nM
MOR-1E-PK
  [35S]GTPγS binding (G-protein activation), EC50: 23 nM
